System: O=c1ccn([C@@H]2O[C@H](COP(=O)(O)OP(=O)(O)OP(=O)(O)O)[C@@H](O)[C@H]2O)c(=O)[nH]1
Assay: purified protein
Settings: 20 mM Tris-HCl pH 8.0, 5 mM DTT, 10 mM MgCl2, 28°C, 16 nM enzyme, no RNA

## ALSV NS3-Hel (Alongshan virus)
  Km: 185 ± 19 µM
  kcat: 0.85 ± 0.02 s⁻¹
